The experiment deals with T1, fusion protein between the extracellular domain of rat RET and placental alkaline phosphatase (rat, UniProt G3V9H8 24-637).
T1 construct: extracellular domain; Used as conditioned medium from 293 EBNA cells; Construct described in Sanicola et al. 1997; also called RET-AP
As to the kind of experiment: ternary complex assay without ligand (parental CHO medium or straight medium). Here is the method:
Dynex Microlite-1 ELISA plates (Dynex Technologies) were coated with 1 μg/ml goat antibody specific for human Fc in 50 mM bicarbonate/carbonate, pH 9.6 for 16 hr. The plates were emptied and filled with 300 μl of 1% I-block (Tropix) in TBS/0.5% Tween-20 (TBST), for 1 hr. After washing three times with TBST the wells were filled with 100 μl of 1 μg/ml rGFRα1-Ig or mGFRα3-Ig diluted in conditioned media from 293 EBNA cells expressing the RET-AP fusion gene. 100 ul of conditioned media from the CHO neublastin clones was then added to the top well of a column of wells, and 2 fold serial dilutions were performed down each row of wells, and incubated for 1.5 hr at room temperature. The plates were then washed three times with TBST, and twice with 200 mM Tris pH9.8, 10 mM MgCl₂ (CSPD buffer). The wash solution was then replaced with 425 μM CSPD (Tropix) in CSPD buffer containing 1 mg/ml Sapphire chemiluminescence enhancer (Tropix), and incubated for 30′ at room temperature. The chemiluminescent output was measured using a Dynatech luminometer.
The initial experiments investigated whether neublastin produced by the CHO cell lines could mediate the binding of GFRα1 or GFRα3 to the extracellular domain of RET.

T1 sequence (G3V9H8 24-637): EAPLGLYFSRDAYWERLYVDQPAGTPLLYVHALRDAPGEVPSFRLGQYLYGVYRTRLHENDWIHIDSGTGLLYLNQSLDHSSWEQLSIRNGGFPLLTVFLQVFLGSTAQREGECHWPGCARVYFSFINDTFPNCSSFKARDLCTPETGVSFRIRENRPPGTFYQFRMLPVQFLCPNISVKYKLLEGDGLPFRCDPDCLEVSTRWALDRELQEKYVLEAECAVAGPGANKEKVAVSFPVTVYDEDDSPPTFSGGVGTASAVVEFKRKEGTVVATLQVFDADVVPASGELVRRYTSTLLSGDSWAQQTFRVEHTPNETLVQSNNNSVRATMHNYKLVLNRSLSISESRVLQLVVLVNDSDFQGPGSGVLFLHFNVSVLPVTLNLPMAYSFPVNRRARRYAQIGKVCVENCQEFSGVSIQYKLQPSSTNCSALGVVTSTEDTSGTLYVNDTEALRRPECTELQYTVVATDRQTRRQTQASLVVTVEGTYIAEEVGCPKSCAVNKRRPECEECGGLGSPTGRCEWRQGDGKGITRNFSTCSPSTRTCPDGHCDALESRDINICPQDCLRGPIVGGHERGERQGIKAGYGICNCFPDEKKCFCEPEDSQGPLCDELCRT

B1: fusion protein between the extracellular domain of rat GFRα1 and the Fc domain of human IgG1 (Fc fusion, UniProt Q62997 25-430, looked up, not shown: a dimerising Fc or GST)
chain: DRLDCVKASDQCLKEQSCSTKYRTLRQCVAGKETNFSLTSGLEAKDECRSAMEALKQKSLYNCRCKRGMKKEKNCLRIYWSMYQSLQGNDLLEDSPYEPVNSRLSDIFRAVPFISDVFQQVEHISKGNNCLDAAKACNLDDTCKKYRSAYITPCTTSMSNEVCNRRKCHKALRQFFDKVPAKHSYGMLFCSCRDIACTERRRQTIVPVCSYEERERPNCLSLQDSCKTNYICRSRLADFFTNCQPESRSVSNCLKENYADCLLAYSGLIGTVMTPNYVDSSSLSVAPWCDCSNSGNDLEDCLKFLNFFKDNTCLKNAIQAFGNGSDVTMWQPAPPVQTTTATTTTAFRVKNKPLGPAGSENEIPTHVLPPCANLQAQKLKSNVSGSTHLCLSDSDFGKDGLAGASS
notes: extracellular domain; Construct described in Sanicola et al. 1997; also called rGFRα1-Ig
Consider B1, for which the binding result was “no binding”.

Values taken from patent US20020055467A1 (Biogen, published 2002).
